In patent publication US20230302148A1, “PHARMACEUTICAL COMPOSITION COMPRISING LONG-ACTING CONJUGATE OF TRIPLE GLUCAGON/GLP-1/GIP RECEPTOR AGONIST” (HANMI PHARM. CO., LTD., priority 2020, published 2023):
Bridges are numbered along the chain shown (N, C = ends). Where no end group is shown, it is not given here. [ ]: non-standard residue; d: D form. The star is where a group is joined. Acetyl(2-(4-imidazolyl)) = O=C(Cc1c[nH]cn1)*; Aib = CC(C)(N)C(=O)O

T1: human GIP receptor (human, UniProt P48546 22-466)
T1 sequence (looked up): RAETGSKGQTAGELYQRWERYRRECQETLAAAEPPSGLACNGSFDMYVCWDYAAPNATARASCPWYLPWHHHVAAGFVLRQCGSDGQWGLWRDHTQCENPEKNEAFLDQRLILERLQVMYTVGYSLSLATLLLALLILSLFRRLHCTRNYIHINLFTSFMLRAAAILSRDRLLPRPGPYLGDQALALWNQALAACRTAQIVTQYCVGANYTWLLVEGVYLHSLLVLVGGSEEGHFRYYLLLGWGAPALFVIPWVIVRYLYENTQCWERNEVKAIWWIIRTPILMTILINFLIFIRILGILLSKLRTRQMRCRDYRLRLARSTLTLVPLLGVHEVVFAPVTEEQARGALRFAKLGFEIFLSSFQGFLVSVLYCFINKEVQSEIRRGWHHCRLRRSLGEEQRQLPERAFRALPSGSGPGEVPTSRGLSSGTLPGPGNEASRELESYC


Legend:
Assay in all cases: cell-based or functional assay
human GCG receptor = human GCG receptor (human, UniProt P47871 26-477)
human GLP-1 receptor = human GLP-1 receptor (human, UniProt P43220 24-463)
human GIP receptor = target: T1, human GIP receptor

human GCG receptor, sequence (P47871 26-477): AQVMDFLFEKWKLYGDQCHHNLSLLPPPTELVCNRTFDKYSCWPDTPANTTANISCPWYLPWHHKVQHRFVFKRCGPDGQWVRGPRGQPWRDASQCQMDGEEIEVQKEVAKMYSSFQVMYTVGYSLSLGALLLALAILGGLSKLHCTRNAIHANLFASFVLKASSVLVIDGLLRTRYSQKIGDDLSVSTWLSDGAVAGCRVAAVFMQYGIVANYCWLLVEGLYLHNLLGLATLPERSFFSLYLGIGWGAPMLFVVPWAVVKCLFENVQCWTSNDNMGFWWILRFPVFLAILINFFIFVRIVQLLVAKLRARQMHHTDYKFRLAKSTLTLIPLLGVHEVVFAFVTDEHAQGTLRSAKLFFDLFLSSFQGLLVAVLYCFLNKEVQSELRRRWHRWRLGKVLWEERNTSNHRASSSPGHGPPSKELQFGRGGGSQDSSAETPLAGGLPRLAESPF

Binder | In vitro activity relative to native peptide (%) vs. Glucagon (human GCG receptor) | In vitro activity relative to native peptide (%) vs. GLP-1 (human GLP-1 receptor) | In vitro activity relative to native peptide (%) vs. GIP (human GIP receptor)
Y[Aib]QGTFTSDYSKYLDEKAAKDFVQWLLDHHPSSGQPPPSC (bridge 16-20) [triple agonist of SEQ ID NO: 77] | 12.2% | 38.7% | 35.5%
{Acetyl(2-(4-imidazolyl))}-[Aib]QGTFTSDYSKYLDEKRQKEFVQWLLNTC (bridge 15-19) [triple agonist of SEQ ID NO: 81] | 0.3% | 7.8% | < 0.1%
H[Aib]QGTFTSDVSKYLDGQAAQEFVAWLLAGC [triple agonist of SEQ ID NO: 9] | 0.13% | 32.1% | < 0.1%
Y[Aib]QGTFTSDYSKCLDEKRAKDFVQWLLDHHPSSGQPPPS (bridge 16-20) [triple agonist of SEQ ID NO: 70] | 71.3% | 15.1% | 64.4%
{Acetyl(2-(4-imidazolyl))}-[Aib]EGTFTSDYSIAMDEIHQKDFVDWLLAEC (bridge 15-19) [triple agonist of SEQ ID NO: 84] | < 0.1% | 4.2% | < 0.1%
Y[Aib]QGTFTSDYSKYLDERACKDFVQWLLDHHPSSGQPPPS (bridge 16-20) [triple agonist of SEQ ID NO: 71] | 12.7% | 90.1% | 94.7%
Y[Aib]QGTFTSDYSKYLDECAAKEFVQWLLDHHPSSGQPPPS (bridge 16-20) [triple agonist of SEQ ID NO: 64] | 60.1% | 64.6% | 92.9%
H[Aib]QGTFTSDVSKYLDGQAAKEFVAWLLKGC [triple agonist of SEQ ID NO: 7] | < 0.1% | 13.7% | < 0.1%
H[Aib]QGTFTSDYSKCLDEKRAKEFVQWLLDHHPSSGQPPPS (bridge 16-20) [triple agonist of SEQ ID NO: 65] | 25.2% | 95.4% | 11.6%
[Acetyl(2-(4-imidazolyl))][Aib]QGTFTSDYSIAMDEKHCKDFVNWLLNTK (bridge 16-20; not fully specified) [triple agonist of SEQ ID NO: 60] | < 0.1% | 106% | 8.2%
{Acetyl(2-(4-imidazolyl))}-[Aib]EGTFTSDYSIAMDEIHQKDFVNWLLAQC (bridge 15-19) [triple agonist of SEQ ID NO: 83] | 1.3% | 47.3% | 0.4%
H[Aib]EGTFTSDYSIAMDEIHQKDFVDWLLAEKC (bridge 16-20) [triple agonist of SEQ ID NO: 80] | 0% | 8.1% | 0.1%
H[Aib]QGTFTSDYSKYLDEKRQKEFVQWLLDTKC (bridge 16-20) [triple agonist of SEQ ID NO: 78] | 14% | 51% | 0.12%
{Acetyl(2-(4-imidazolyl))}-[Aib]QGTFTSDYSKYLDEKRQKEFVQWLLDTC (bridge 15-19) [triple agonist of SEQ ID NO: 82] | 1.1% | 9.5% | < 0.1%
Y[Aib]QGTFTSDYSKYLDECAAKDFVQWLLDHHPSSGQPPPS (bridge 16-20) [triple agonist of SEQ ID NO: 67] | 46.2% | 28.5% | 39.8%
